{"source": "patent US20260250362A1", "about": "(published 2026)", "key": {"[1]": {"molecular_target": "T1, recombinant ANDV Gn^H/Gc heterodimer (Andes virus (ANDV))", "assay": "BLI"}, "[2]": {"molecular_target": "PUUV GnH/Gc", "assay": "BLI"}, "[3]": {"molecular_target": "PUUV GnH/Gc", "assay": "BLI", "remark": "listed apart in the source"}, "[4]": {"molecular_target": "T1, recombinant ANDV Gn^H/Gc heterodimer", "assay": "BLI", "remark": "listed apart in the source"}, "[5]": {"molecular_target": "PUUV (Puumala virus (PUUV))", "assay": "ELISA"}}, "note": "Like-named read-outs stand apart in the source and are kept apart here."}
{"binder": "ADI-42898 Fab (Fab, V domains shown) VH: QVQLVESGGGVVQPGRSLRLSCAASGFTFSSYAMHWVRQAPGKGLEWVAVTWFDVSKKDYADSVKGRFTISRDNSKNTLYLQMNSLRAEDTAVYYCARNLIRYSGSYFPVHGMDVWGQGTTVTVSS VL: DIVMTQSPLSLPVTPGEPASISCRSSQSLLHTYGYNSLDWYLQRPGQSPQLLISLGSYRASGVPDRFSGSGSGTDFTLKISRVEAEDVGVYYCMQALHPFTFGGGTKVEIK", "values": [{"measurement": "Kd", "setting": "[1]", "result": 19600, "unit": "nM"}, {"measurement": "Kd", "setting": "[2]", "result": 1.9, "unit": "nM"}]}
{"binder": "ADI-42898 IgG (antibody, V domains shown) VH: QVQLVESGGGVVQPGRSLRLSCAASGFTFSSYAMHWVRQAPGKGLEWVAVTWFDVSKKDYADSVKGRFTISRDNSKNTLYLQMNSLRAEDTAVYYCARNLIRYSGSYFPVHGMDVWGQGTTVTVSS VL: DIVMTQSPLSLPVTPGEPASISCRSSQSLLHTYGYNSLDWYLQRPGQSPQLLISLGSYRASGVPDRFSGSGSGTDFTLKISRVEAEDVGVYYCMQALHPFTFGGGTKVEIK", "values": [{"measurement": "Kd", "setting": "[3]", "result": 1.5, "unit": "nM"}]}
{"binder": "ADI-42898 (antibody, V domains shown) VH: QVQLVESGGGVVQPGRSLRLSCAASGFTFSSYAMHWVRQAPGKGLEWVAVTWFDVSKKDYADSVKGRFTISRDNSKNTLYLQMNSLRAEDTAVYYCARNLIRYSGSYFPVHGMDVWGQGTTVTVSS VL: DIVMTQSPLSLPVTPGEPASISCRSSQSLLHTYGYNSLDWYLQRPGQSPQLLISLGSYRASGVPDRFSGSGSGTDFTLKISRVEAEDVGVYYCMQALHPFTFGGGTKVEIK", "values": [{"measurement": "Kd", "setting": "[4]", "result": 2.8, "unit": "nM"}]}
{"binder": "IgG (antibody, V domains shown) VH: QVQLVESGGGVVQPGRSLRLSCAASGFTFSSYAMHWVRQAPGKGLEWVAVTWFDVSKKDYADSVKGRFTISRDNSKNTLYLQMNSLRAEDTAVYYCARNLIRYSGSYFPVHGMDVWGQGTTVTVSS VL: DIVMTQSPLSLPVTPGEPASISCRSSQSLLHTYGYNSLDWYLQRPGQSPQLLISLGSYRASGVPDRFSGSGSGTDFTLKISRVEAEDVGVYYCMQALHPFTFGGGTKVEIK", "values": [{"measurement": "EC50", "setting": "[5]", "result": "< 0.1", "unit": "nM"}]}
